How the values were obtained:
[1] = target: T1, canine CD16A on dog peripheral blood leukocytes / PBMC (canine, UniProt E2RP87 1-249); assay: flow cytometry, FITC protein at 80 nM, PBMC of dog Never
T1 construct: Native protein on primary dog cells of various breeds
T1 sequence: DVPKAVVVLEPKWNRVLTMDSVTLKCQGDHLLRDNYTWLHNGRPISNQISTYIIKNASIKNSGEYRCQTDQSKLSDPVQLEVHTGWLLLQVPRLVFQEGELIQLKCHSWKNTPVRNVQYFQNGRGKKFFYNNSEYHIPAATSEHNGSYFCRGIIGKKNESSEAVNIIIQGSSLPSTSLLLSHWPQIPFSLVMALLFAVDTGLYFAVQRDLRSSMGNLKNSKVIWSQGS
Procedure: (§1) To test the binding of the anti-CD16 domain, binding was evaluated on canine peripheral blood mononuclear cells (PBMC) that contained canine NK cells, T cells, B cells, and monocytes (Table 2). A single batch of 1615B7H3 TriKE (SEQ ID NO:56) was directly labeled with FITC fluorochrome and tested. The binding of the anti-CD16 fragment alone (anti-CD16-FITC) was tested as a positive control. Binding of an anti-B7H3 fragment alone (antiB7H3-FITC) was tested as a negative control.

[2] = target: T1, canine CD16A on dog peripheral blood …; assay: flow cytometry, FITC protein at 400 nM, PBMC of dog Never
Procedure: as §1

[3] = target: T1, canine CD16A on dog peripheral blood …; assay: flow cytometry, FITC protein at 2000 nM, PBMC of dog Never
Procedure: as §1

[4] = target: T1, canine CD16A on dog peripheral blood …; assay: flow cytometry, FITC protein at 80 nM, PBMC of dog Maverick
Procedure: as §1

[5] = target: T1, canine CD16A on dog peripheral blood …; assay: flow cytometry, FITC protein at 400 nM, PBMC of dog Maverick
Procedure: as §1

[6] = target: T1, canine CD16A on dog peripheral blood …; assay: flow cytometry, FITC protein at 2000 nM, PBMC of dog Maverick
Procedure: as §1

[7] = target: T1, canine CD16A on dog peripheral blood …; assay: flow cytometry, FITC protein at 80 nM, dog PBMC treated with IL-15 for 6 days
Procedure: as §1

[8] = target: T1, canine CD16A on dog peripheral blood …; assay: flow cytometry, FITC protein at 400 nM, dog PBMC treated with IL-15 for 6 days
Procedure: as §1

[9] = target: T1, canine CD16A on dog peripheral blood …; assay: flow cytometry, FITC protein at 2000 nM, dog PBMC treated with IL-15 for 6 days
Procedure: as §1

[10] = target: T2, B7-H3 on canine osteosarcoma OSCA78 cells (canine); assay: flow cytometry on OSCA78 cells, 16 nM, experiment 2
T2 construct: whole, on cells

[11] = target: T2, B7-H3 on canine osteosarcoma OSCA78 …; assay: flow cytometry on OSCA78 cells, 80 nM, experiment 1
[12] = target: T2, B7-H3 on canine osteosarcoma OSCA78 …; assay: flow cytometry on OSCA78 cells, 80 nM, experiment 2
[13] = target: T2, B7-H3 on canine osteosarcoma OSCA78 …; assay: flow cytometry on OSCA78 cells, 400 nM, experiment 1
[14] = target: T2, B7-H3 on canine osteosarcoma OSCA78 …; assay: flow cytometry on OSCA78 cells, 400 nM, experiment 2
[15] = target: T2, B7-H3 on canine osteosarcoma OSCA78 …; assay: flow cytometry on OSCA78 cells, 2000 nM, experiment 1
[16] = target: T1, canine CD16A on dog peripheral blood …; assay: flow cytometry on dog peripheral blood leukocytes (FIG. 4A)
Source text: Flow cytometry was used to examine the expression patterns of CD16A and CD64 by dog peripheral blood leukocytes. The general leukocyte populations of polymorphonuclear cells (PMNs), monocytes, and lymphocytes were identified based on their characteristic forward and side light-scattering and by their expression of well characterized markers, including CD4 (neutrophils and lymphocyte), CD14 (monocytes), and CD5 (T cells) (FIG. 4A). The anti-canine CD16A clone 4A5 stained a subset of monocytes and lymphocytes, and for some dogs it marginally stained PMNs and/or a small subset of cells in this population (FIG. 4A). This staining pattern was consistent for all the anti-canine CD16 mAbs generated, which had distinct complementarity-determining region nucleotide sequences from 4A5. […]
For cell staining, nonspecific antibody binding sites were blocked for 30 min using 25% canine serum and 25% FBS in PBS buffer (without Ca⁺² and Mg⁺²) (Lonza Group AG, Basel, Switzerland) prior to their staining with antibodies. All cell staining was analyzed on a FACSCelesta instruments (BD Biosciences, Franklin Lakes, N.J.), as previously described (Snyder et al., Vet Immunol Immunopathol 231:110162, 2021). Briefly, for controls, fluorescence minus one was used as well as appropriate isotype-matched antibodies. […]

[17] = target: T3, recombinant intact canine CD64 with an N-terminus HA-tag, expressed on NK-92 cells (canine); assay: flow cytometry on NK-92 cCD16A and NK-92 cCD64 cells (FIG. 3A)
T3 construct: also called NK-92 canine CD64 cells; NK-92 cCD64; not shown: N-terminal HA tag from the pDisplay cassette
T3 chain: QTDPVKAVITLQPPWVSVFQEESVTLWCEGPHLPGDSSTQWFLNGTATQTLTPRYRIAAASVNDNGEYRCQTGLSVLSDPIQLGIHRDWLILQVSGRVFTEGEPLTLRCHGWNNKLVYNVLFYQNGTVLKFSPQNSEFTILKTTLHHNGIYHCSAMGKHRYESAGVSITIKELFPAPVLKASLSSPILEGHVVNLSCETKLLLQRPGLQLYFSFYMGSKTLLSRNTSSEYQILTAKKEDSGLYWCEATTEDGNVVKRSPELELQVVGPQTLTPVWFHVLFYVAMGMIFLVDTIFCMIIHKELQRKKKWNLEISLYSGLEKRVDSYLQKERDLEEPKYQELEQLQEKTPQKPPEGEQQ

B1: anti-canine CD16 antibody fragment alone (other)
VL: MEQILLTQSPAIMSASPGEKVTMTCSASSSVGYMHWYQQKPGSSPKPWIYDTSDLASGFPARFSGSRSGTSYSLIISSMEAEDAATYYCHQRSFYPYTFGGGTKLEIK
VH: EVQLQQSGAELVRSGASVKLSCTASGFNIKDYYMHWVKQRPEQGLEWIGWLDPENGDTVYAPKFQGRATMTADTSSNTAYLHLSSLTSEDTAVYYCNALVYSLLGQDYWGQGTTLTVSS
modifications: FITC-labelled in the PBMC assay (sites not given)
notes: also called anti-CD16; anti-CD16-FITC
- binding (flow cytometry read-out, unit not given) [1]: 3.7
- binding (flow cytometry read-out, unit not given) [2]: 8.8
- binding (flow cytometry read-out, unit not given) [3]: 23.8
- binding (flow cytometry read-out, unit not given) [4]: 10.1
- binding (flow cytometry read-out, unit not given) [5]: 26.5
- binding (flow cytometry read-out, unit not given) [6]: 43.6
- binding (flow cytometry read-out, unit not given) [7]: 6.2
- binding (flow cytometry read-out, unit not given) [8]: 15.3
- binding (flow cytometry read-out, unit not given) [9]: 35.8

B2: anti-B7H3 antibody fragment alone (VHH)
VHH: QVQLVESGGGLVQPGGSLRLSCAASGFTFSSYWMYWVRQTPGKGLEWVSTINRDGSATWYADSVKGRFTISRDNAKNTGYLQMNSLKPDDTAVYYCVSDPDNYSSDEMVPYWGQGTQVTVSS
modifications: FITC-labelled in the PBMC assay (sites not given)
notes: The kind VHH is inferred from the single variable domain and the label 1615CAMB7H3; also called antiB7H3-FITC; anti-B7H3 fragment
- binding (flow cytometry read-out, unit not given) [10]: 2.8
- binding (flow cytometry read-out, unit not given) [11]: 64
- binding (flow cytometry read-out, unit not given) [12]: 42.1
- binding (flow cytometry read-out, unit not given) [13]: 98.8
- binding (flow cytometry read-out, unit not given) [14]: 93.7
- binding (flow cytometry read-out, unit not given) [15]: 99.8

B3: anti-canine CD16A mAb (clone 4A5) (antibody, IgG1)
VH: EVQLQQSGAELVRSGASVKLSCTASGFNIKDYYMHWVKQRPEQGLEWIGWLDPENGDTVYAPKFQGRATMTADTSSNTAYLHLSSLTSEDTAVYYCNALVYSLLGQDYWGQGTTLTVSSAKTTPPSVYPLAPGSAAQTNSMVTLGCLVKGYFPEPVTVTWNSGSLSSGVHTFPAVLQSDLYTLSSSVTVPSS
VL: QILLTQSPAIMSASPGEKVTMTCSASSSVGYMHWYQQKPGSSPKPWIYDTSDLASGFPARFSGSRSGTSYSLIISSMEAEDAATYYCHQRSFYPYTFGGGTKLEIKRADAAPTVSIFPPSSEQLTSGGASVVCFLNNFYPKDINVKWKIDGSERQNGVLNSWTDQDSKDSTYSMSSTLTLTK
notes: also called anti-CD16A mAb clone 4A5; anti-canine CD16 (clone 4A5)
- binding result [16]: binds
- binding result [17]: no binding

— patent US20230227561A1 (REGENTS OF THE UNIVERSITY OF MINNESOTA, published 2023)
